Here are results for 9 molecules from patent US20190389905A1 (OREGON STATE UNIVERSITY, published 2019).

The target in experiment [1] is T1, sAniA, recombinant AniA (NGO1276) of Neisseria gonorrhoeae FA1090 lacking the N-terminal palmitoylation … (Neisseria gonorrhoeae FA1090, UniProt Q02219 19-392).
T1 construct: mature; also called nitrite reductase; NirK
T1 sequence: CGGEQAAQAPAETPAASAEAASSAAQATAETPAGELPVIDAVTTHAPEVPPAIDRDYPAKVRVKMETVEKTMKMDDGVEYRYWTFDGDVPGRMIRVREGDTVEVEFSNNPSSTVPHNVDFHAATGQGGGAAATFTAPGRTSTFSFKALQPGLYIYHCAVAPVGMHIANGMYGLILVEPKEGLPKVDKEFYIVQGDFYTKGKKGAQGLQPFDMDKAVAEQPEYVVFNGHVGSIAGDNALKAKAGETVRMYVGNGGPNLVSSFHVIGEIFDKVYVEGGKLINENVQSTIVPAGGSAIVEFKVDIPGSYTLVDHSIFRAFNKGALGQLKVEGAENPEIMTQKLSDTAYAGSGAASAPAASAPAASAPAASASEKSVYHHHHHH
As to the kind of experiment: phage ELISA on sAniA-coated wells; reference is phage-displayed 12-5.
Method: Individual wells in 96-well transparent plates (Greiner-Bio) were coated with 100 μL of 100 pg/mL of sAniA suspended in 0.1 M NaHCO₃pH 8.6 and incubated overnight at 4° C. in an airtight humidified box. After incubation, excess target solution was shaken out and wells were filled with 300 μL of blocking buffer (0.1 M NaHCO₃pH 8.6, 5 mg/mL BSA). Following 2 h incubation at 4° C., blocking buffer was removed and wells were washed six times with 200 μL of TBST (50 mM Tris-HCl pH 8.6, 150 mM NaCl, 0.5% Tween). Isolated individual phage amplifications (10¹⁰ PFU) in 100 μl of TBST were incubated at room temperature for 1 h with rocking. All wells were then cleared by shaking and washed six times with 200 μL of TBST. A solution containing Anti-M13 HRP linked-Monoclonal Antibodies (NEB) (1:5,000 dilution in blocking buffer) was distributed at 200 μL per well and incubated with rocking at room temperature for 1 h. Wells were washed six times with TBST and incubated with Turbo TMB-ELISA for 30 min with rocking at room temperature. […] Data from seven independent experiments are shown with mean and SEM

Experiment [2] deals with T1, sAniA, recombinant AniA (NGO1276) of …. Description: cell-based or functional assay.
The target of experiment [3] is AniA expressed by intact N. gonorrhoeae FA1090 ΔaniA/Plac::aniA cells (Neisseria gonorrhoeae FA1090), Q02219. As to the kind of experiment: cell-based or functional assay.
Experiment [4] concerns the target T1, sAniA, recombinant AniA (NGO1276) of …. Description: biolayer interferometry (OctetRed 96): C7-3Bio on streptavidin sensors, sAniA 50-1000 nM in solution, 2:1 heterogeneous ligand model, average ± SEM of three experiments.
Method: Streptavidin (SA) biosensors (ForteBio) were loaded with C7-3Bio peptides for 10 min. Unloaded tips were used as a control. The sAniA samples were prepared in Kinetic Buffer in concentrations of 50, 100, 500, and 1000 nM. The baseline was established for 240 s and the association and dissociation steps were performed for 500 s. Experiments were performed in three biological replicates with the curve fitting using 2:1 (Heterogeneous Ligand) model and KD value calculations were completed using Octet Data Analysis (version 9).
The BLI experiments were performed using steady state method and curve fitting of the association and dissociation responses.

The star is where a group is joined. Biotin = O=C1N[C@H]2[C@H](CS[C@H]2CCCCC(=O)*)N1; Ahx = NCCCCCC(=O)O

B1: phage-displayed peptide C7-3 (CNYCRLNLW), M13 phage clone from the Ph.D.-C7C library (peptide, not shown: large carriers)
peptide: CNYCRLNLW
notes: Tested as whole phage (10^10 PFU per well) in the phage ELISA; Trp stands where the library's second Cys would be; also called phage-expressed C7-3
Take B1: the “fold lower relative binding in comparison to 12-5” value in experiment [1] is around 2 fold.

Regarding H-ACNYCRLNLWGGGS-NH2 (cysteine pairing not given here) [synthetic peptide C7-3 (H-ACNYCRLNLWGGGS-NH2)], the “IC50 of inhibition of nitrite reductase activity of sAniA (DAN assay)” value in experiment [2] worked out at 10.2 µM.

In experiment [3], H-ACSYCRLNLWGGGS-NH2 (cysteine pairing not given here) [synthetic peptide C7-3m2 (H-…-NH2)] returned a percent inhibition of nitrite reductase activity of intact N. gonorrhoeae cells at 0.3 mM peptide of 50% and a percent inhibition of nitrite reductase activity of intact N. gonorrhoeae cells at 0.6 mM peptide of 90%.

H-ACNYCRLNLWGGGS-NH2 (cysteine pairing not given here) [synthetic peptide C7-3 (H-…-NH2)] gave a percent inhibition of nitrite reductase activity of intact N. gonorrhoeae cells at 0.6 mM peptide in experiment [3] of 50%.

As for H-ACNFCRLNLWGGGS-NH2 (cysteine pairing not given here) [synthetic peptide C7-3P (H-ACNFCRLNLWGGGS-NH2)], in experiment [2], the “IC50 of inhibition of nitrite reductase activity of sAniA (DAN assay)” value was above 105 µM.

Take H-ACNACRLNLWGGGS-NH2 (cysteine pairing not given here) [synthetic peptide C7-3A (H-ACNACRLNLWGGGS-NH2)]: the “IC50 of inhibition of nitrite reductase activity of sAniA (DAN assay)” value in experiment [2] was around 25.2 µM.

B2: C7-3Bio, C7-3 biotinylated at the N-terminus (BiotinAhx-ACNYCRLNLWGGGS-NH2) (peptide)
peptide: {Biotin-Ahx}-ACNYCRLNLWGGGS-NH2
modifications: cysteine pairing not given here
notes: Immobilized on streptavidin biosensors in the BLI experiment; also called biotinylated C7-3
On to B2, for which the “IC50 of inhibition of nitrite reductase activity of AniA (DAN assay)” value in experiment [2] turned out to be 13.5 µM. In addition, in experiment [4], the Kd amounted to 0.775 µM.

On to H-ACNYSRLNLWGGGS-NH2 [synthetic peptide C7-3m1 (H-ACNYSRLNLWGGGS-NH2)], for which the “IC50 of inhibition of nitrite reductase activity of sAniA (DAN assay)” value in experiment [2] was determined as 5.91 µM.

For the molecule H-ACSYCRLNLWGGGS-NH2 (cysteine pairing not given here) [synthetic peptide C7-3m2 (H-ACSYCRLNLWGGGS-NH2)], in experiment [2], the “IC50 of inhibition of nitrite reductase activity of sAniA (DAN assay)” value came to 4.81 µM.
